Source: patent US20130315946A1

Target: complement C3
Assay: ELISA, peptide coated on plate, serum C3 detected with anti-C3 antibody; relative to A2-0 (SPE B C192S)

Binder: GADGRNFYHVNWGWG [SPE B346~360 (as set forth in SEQ ID NO: 6)]
- binding ability relative to reference A2-0: > 50%

Binder: ALGTGGGAGGFNGYQSAVVGIKP [SPE B376~398 (as set forth in SEQ ID NO: 8)]
- binding ability relative to reference A2-0: > 50%
